Assay results published in the supplement of paper PMC10567573.

B1: TRIM55 (parent)
chain: ICPICLEMFTKPVVILPCQHNLCR

Variants of: B1
Assay: protein stability index of a GFP-peptide fusion (GPS, HEK-293T) (PSI 1-6); higher = more stable
Conditions: c terminus: a fixed tail appended
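Also: lentivirally expressed fusions sorted by FACS into six bins by GFP to DsRed ratio, PSI derived from sequencing read proportions per bin multiplied by bin number.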

Protein stability index: each site, then its substitutions
L6: C 2.39 | G 2.25 | A 2.03 | R 2.22 | S 2.52 | Q 1.99 | Y 2.34 | I 2.32 | D 2.79 | V 1.95 | P 2.69 | K 2.81 | E 3.49 | M 2.45 | N 2.94 | F 2.48 | W 2.77 | T 2.51 | H 2.38
P3: D 2.53 | S 1.75 | T 2.45 | K 1.66 | E 2.21 | R 1.27 | L 2.17 | Y 1.27 | V 2.21 | H 2.35 | F 1.6 | I 3.07 | Q 1.2 | G 1.26 | A 1.27 | C 1.63 | N 2.13 | M 2.07 | W 1.9
F9: C 2.81 | R 2.18 | Y 2.18 | I 2.77 | Q 2.49 | L 2.47 | N 2.75 | S 2.75 | T 3.07 | H 2.82 | W 2.47 | D 3.1 | E 3.15 | A 2.64 | M 2.51 | K 3.63 | V 2.86 | G 2.52 | P 2.85
I4: E 2.33 | P 1.94 | L 1.78 | K 2.74 | N 2.25 | M 1.86 | C 1.83 | A 2.07 | S 2.72 | G 2.03 | H 2.26 | Y 2.69 | T 2.31 | R 2.87 | W 2.34 | V 2.51 | F 2.67 | D 2.49 | Q 3.02
C2: V 2.11 | Y 2.49 | M 1.67 | N 1.78 | K 2.15 | Q 1.73 | I 1.56 | R 2.03 | W 1.22 | T 1.6 | F 2.02 | P 1.93 | G 1.77 | L 2.04 | H 1.96 | S 2.55
E7: M 2.09 | H 2.29 | L 2.47 | R 2.24 | S 2.19 | P 2.13 | D 2.35 | Y 2.07 | T 1.85 | G 2.52 | I 1.94 | Q 2.42 | C 1.92 | V 1.42 | K 1.87 | W 1.89 | F 2.24 | A 2.3 | N 1.53
M8: P 2.71 | L 1.66 | V 2.17 | N 1.9 | E 2.59 | R 2.42 | S 2.59 | K 2.98 | H 2.76 | C 2.44 | Q 3.31 | Y 2.82 | A 2.76 | F 2.55 | I 2.63 | G 2.11 | D 3.58 | W 3.09 | T 2.73
T10: R 2.38 | Y 2.06 | C 2.08 | D 2.48 | F 1.74 | G 2.25 | M 2.3 | L 2.59 | P 2.46 | A 2.23 | V 1.56 | I 1.83 | K 2.34 | S 2.74 | N 2.73 | W 2.27 | E 2.59 | Q 3.09 | H 2.27
C5: V 2.14 | D 2.05 | L 1.72 | K 3.33 | F 1.57 | E 2.28 | G 1.8 | T 1.73 | N 2.01 | M 2.09 | H 1.15 | S 2.38 | Y 2.3 | P 2.07 | Q 1.18 | A 1.93 | W 1.6 | R 1.22
